Measured values: patent publication US20140287471A1, “VARIANT CBH I POLYPEPTIDES WITH REDUCED PRODUCT INHIBITION” (BP CORPORATION NORTN AMERICA INC., priority 2011, published 2014)
Residue numbers refer to the chain shown, from its start. Where two headings read alike, the source gives them in different places.

How the values were obtained:
[1] = 4-MUL cellobiose tolerance/inhibition assay, dose-response IC50 (Example 2); type: biochemical; settings: for Tolerance at 1 mM CB (MUL Data): 1 mM cellobiose; for synergy of double mutant (measured vs expected additive IC50): measured versus expected additive IC50
In short: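 IC50 reflects cellobiose concentration halving activity, fitted by four-parameter dose-response with zero activity fixed at knockout-strain background. Assays used 4-MUL (0.5 mM) with enzyme at 5 μg/mL or less, pH 6 MES, 25 mM gluconolactone blocking BG, cellobiose up to 100 mM; 4-MU fluorescence read.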

[2] = 4-MUL assay, specific activity (Example 2); type: biochemical; settings: for SA (μmol 4 MU/min/mg) (MUL Data): primary screening, 10 μL enzyme, n=1; for 411— Measured Specific Activity (SA) / 411— Δ SA* (change in specific activity; ratio of variant: WT): 411 single substitution; for 268A+411— Measured Specific Activity (SA) / 268A+411— Δ SA* (change in specific activity; ratio of variant: WT): double mutant 268A+411X; for 268— Measured Specific Activity (SA) / 268— Δ SA* (change in specific activity; ratio of variant: WT): 268 single substitution
Description: CBH I activity on was measured using the 4-MUL assay using gluconolactone to inhibit any BG activity. The fluorogenic 4-MUL substrate (SIGMA) was prepared at 100 mM concentration in DMSO. Assays were run in black 96-well-flat-bottomed plates (Costar) and 4-MU fluorescence was read on a BioTek H4 plate reader (ex/em 365/450 nm). Assay plates were filled with buffer (final concentrations of 100 mM MES, pH 6, 25 mM gluconolactone, with or without cellobiose; cellobiose concentrations are listed with appropriate data sets), to which enzyme mixture was added (10-30 μl, 5 μg/mL final) and then assays were initiated by addition of 4-MUL (0.5 mM final concentration in 100 μl total volume). Enzyme mixtures were either CBH I variants from harvested supernatants or standards. Standards included: a negative control, consisting of harvested supernatant from the CBH I knock-out strain; a positive control, consisting of wild-type CBH I from harvested supernatants; and, a commercial CBH I standard (E-CBHI from Megazymes). Activity standards were run by serial dilution of commercial CBH I from 40 to 0.02 μg/mL and 4-MU (SIGMA, prepared at 20 mM in DMSO) (in dilution increments of 2-fold; all dilutions were made using harvested supernatant from the knock-out control). Kinetic rates were monitored over the first 15 mins following 4-MUL addition; initial rates were calculated based on data in the linear range. After 1 hr, a final endpoint read was taken, both before and after reaction quenching (100 μL of 200 mM Sodium Carbonate, pH 10.0). Activity was calculated for kinetic and endpoint reads; background resulting from the CBH I knock-out supernatant remained negligible. 4MU standard curves and HPLC quantification values were used to calculate specific activity.
The specific activity (SA) of the variant library was evaluated in a secondary 4-MUL assay. […] On average, a mutation at position 268 increases the specific activity by 2.5 fold over that of wild type. A mutation at 268 in combination with 411 is around 1.5-1.6 fold higher than wild-type, on average.

[3] = primary screening, 10 μL enzyme, cellobiose range 0.0001-100 mM, n=1, read-out: IC50 (MUL Data)
[4] = 411 single substitution, averaged IC50 from Tables 8-11, read-out: 411— Measured (merged IC50)
[5] = double mutant 268A+411X, averaged IC50 from Tables 8-11, read-out: 268A+411— Measured (merged IC50)
[6] = double mutant 268A+411X, expected IC50 (additive values of single mutations), read-out: 268A+411— Expected IC50
[7] = 268 single substitution, averaged IC50 from Tables 8-11, read-out: 268— Measured (merged IC50)

B1: 411— Tyr (protein, UniProt P62694 18-513, looked up, variant R411Y)
Exoglucanase 1: QSACTLQSETHPPLTWQKCSSGGTCTQQTGSVVIDANWRWTHATNSSTNCYDGNTWSSTLCPDNETCAKNCCLDGAAYASTYGVTTSGNSLSIGFVTQSAQKNVGARLYLMASDTTYQEFTLLGNEFSFDVDVSQLPCGLNGALYFVSMDADGGVSKYPTNTAGAKYGTGYCDSQCPRDLKFINGQANVEGWEPSSNNANTGIGGHGSCCSEMDIWEANSISEALTPHPCTTVGQEICEGDGCGGTYSDNRYGGTCDPDGCDWNPYRLGNTSFYGPGSSFTLDTTKKLTVVTQFETSGAINRYYVQNGVTFQQPNAELGSYSGNELNDDYCTAEEAEFGGSSFSDKGGLTQFKKATSGGMVLVMSLWDDYYANMLWLDSTYPTNETSSTPGAVYGSCSTSSGVPAQVESQSPNAKVTFSNIKFGPIGSTGNPSGGNPPGGNRGTTTTRRPATTTGSSPGPTQSHYGQCGGIGYSGPTVCASGTTCQVLNPYYSQCL
[1]; primary screening, n=1
  Tolerance at 1 mM CB (MUL Data): 85%
[1]; [3]
  IC50: 5400 µM
[2]
  SA (μmol 4 MU/min/mg) (MUL Data): 0.67 μmol 4 MU/min/mg

B2: 411— Cys (protein, UniProt P62694 18-513, looked up, variant R411C)
Exoglucanase 1: B1 Exoglucanase 1 with Y394C
[1]; primary screening, n=1
  Tolerance at 1 mM CB (MUL Data): 71%
[1]; [3]
  IC50: 1600 µM
[2]
  SA (μmol 4 MU/min/mg) (MUL Data): 0.52 μmol 4 MU/min/mg

B3: 411Gly (protein, UniProt P62694 18-513, looked up, variant R411G)
Exoglucanase 1: B1 Exoglucanase 1 with Y394G
[1]; [4]
  IC50: 1810 µM
[2]
  411— Measured Specific Activity (SA): 0.60 μmol 4 MU/min/mg CBH I
  411— Δ SA* (change in specific activity; ratio of variant: WT): 0.8

B4: 411— Asp (protein, UniProt P62694 18-513, looked up, variant R411D)
Exoglucanase 1: B1 Exoglucanase 1 with Y394D
[1]; primary screening, n=1
  Tolerance at 1 mM CB (MUL Data): 106%
[1]; [3]
  IC50: 2080 µM
[2]
  SA (μmol 4 MU/min/mg) (MUL Data): 0.23 μmol 4 MU/min/mg

B5: 268A+411Cys (protein, UniProt P62694 18-513, looked up, variant R268A R411C)
Exoglucanase 1: B1 Exoglucanase 1 with R251A, Y394C
[1]; [5]
  IC50: 10200 µM
[1]; [6]
  IC50: 1740 µM
[1]; double mutant 268A+411X
  synergy of double mutant (measured vs expected additive IC50): 5.8
[2]
  268A+411— Measured Specific Activity (SA): 1.85 μmol 4 MU/min/mg CBH I
  268A+411— Δ SA* (change in specific activity; ratio of variant: WT): 2.4

B6: 411— Glu (protein, UniProt P62694 18-513, looked up, variant R411E)
Exoglucanase 1: B1 Exoglucanase 1 with Y394E
[1]; primary screening, n=1
  Tolerance at 1 mM CB (MUL Data): 76%
[1]; [3]
  IC50: 2950 µM
[2]
  SA (μmol 4 MU/min/mg) (MUL Data): 0.38 μmol 4 MU/min/mg

B7: 411His (protein, UniProt P62694 18-513, looked up, variant R411H)
Exoglucanase 1: B1 Exoglucanase 1 with Y394H
[1]; [4]
  IC50: 2930 µM
[2]
  411— Measured Specific Activity (SA): 0.80 μmol 4 MU/min/mg CBH I
  411— Δ SA* (change in specific activity; ratio of variant: WT): 1.0

B8: 268A+411Asp (protein, UniProt P62694 18-513, looked up, variant R268A R411D)
Exoglucanase 1: B1 Exoglucanase 1 with R251A, Y394D
[1]; [5]
  IC50: 11500 µM
[1]; [6]
  IC50: 2280 µM
[1]; double mutant 268A+411X
  synergy of double mutant (measured vs expected additive IC50): 5.0
[2]
  268A+411— Measured Specific Activity (SA): 2.21 μmol 4 MU/min/mg CBH I
  268A+411— Δ SA* (change in specific activity; ratio of variant: WT): 2.9

B9: 268A+411Thr (protein, UniProt P62694 18-513, looked up, variant R268A R411T)
Exoglucanase 1: B1 Exoglucanase 1 with R251A, Y394T
[1]; [5]
  IC50: 11700 µM
[1]; [6]
  IC50: 2540 µM
[1]; double mutant 268A+411X
  synergy of double mutant (measured vs expected additive IC50): 4.6
[2]
  268A+411— Measured Specific Activity (SA): 1.78 μmol 4 MU/min/mg CBH I
  268A+411— Δ SA* (change in specific activity; ratio of variant: WT): 2.3

B10: 411Thr (protein, UniProt P62694 18-513, looked up, variant R411T)
Exoglucanase 1: B1 Exoglucanase 1 with Y394T
[1]; [4]
  IC50: 1970 µM
[2]
  411— Measured Specific Activity (SA): 0.48 μmol 4 MU/min/mg CBH I
  411— Δ SA* (change in specific activity; ratio of variant: WT): 0.6

B11: 268Pro (protein, UniProt P62694 18-513, looked up, variant R268P)
Exoglucanase 1: B1 Exoglucanase 1 with R251P, Y394R
[1]; [7]
  IC50: 520 µM
[2]
  268— Measured Specific Activity (SA): 3.38 μmol 4 MU/min/mg CBH I
  268— Δ SA* (change in specific activity; ratio of variant: WT): 4.4

B12: 268A+411Glu (protein, UniProt P62694 18-513, looked up, variant R268A R411E)
Exoglucanase 1: B1 Exoglucanase 1 with R251A, Y394E
[1]; [5]
  IC50: 14400 µM
[1]; [6]
  IC50: 3810 µM
[1]; double mutant 268A+411X
  synergy of double mutant (measured vs expected additive IC50): 3.8
[2]
  268A+411— Δ SA* (change in specific activity; ratio of variant: WT): 0.6

B13: 268A+411Met (protein, UniProt P62694 18-513, looked up, variant R268A R411M)
Exoglucanase 1: B1 Exoglucanase 1 with R251A, Y394M
[1]; [5]
  IC50: 11700 µM
[1]; [6]
  IC50: 3910 µM
[1]; double mutant 268A+411X
  synergy of double mutant (measured vs expected additive IC50): 3.0
[2]
  268A+411— Measured Specific Activity (SA): 1.78 μmol 4 MU/min/mg CBH I
  268A+411— Δ SA* (change in specific activity; ratio of variant: WT): 2.3

B14: 268A+411Gln (protein, UniProt P62694 18-513, looked up, variant R268A R411Q)
Exoglucanase 1: B1 Exoglucanase 1 with R251A, Y394Q
[1]; [5]
  IC50: 13700 µM
[1]; [6]
  IC50: 3090 µM
[1]; double mutant 268A+411X
  synergy of double mutant (measured vs expected additive IC50): 4.5
[2]
  268A+411— Measured Specific Activity (SA): 1.22 μmol 4 MU/min/mg CBH I
  268A+411— Δ SA* (change in specific activity; ratio of variant: WT): 1.6

B15: 268Ser (protein, UniProt P62694 18-513, looked up, variant R268S)
Exoglucanase 1: B1 Exoglucanase 1 with R251S, Y394R
[1]; [7]
  IC50: 500 µM
[2]
  268— Measured Specific Activity (SA): 1.85 μmol 4 MU/min/mg CBH I
  268— Δ SA* (change in specific activity; ratio of variant: WT): 2.4

B16: 411Met (protein, UniProt P62694 18-513, looked up, variant R411M)
Exoglucanase 1: B1 Exoglucanase 1 with Y394M
[1]; [4]
  IC50: 3340 µM
[2]
  411— Measured Specific Activity (SA): 0.57 μmol 4 MU/min/mg CBH I
  411— Δ SA* (change in specific activity; ratio of variant: WT): 0.7

B17: 411— Ser (protein, UniProt P62694 18-513, looked up, variant R411S)
Exoglucanase 1: B1 Exoglucanase 1 with Y394S
[1]; primary screening, n=1
  Tolerance at 1 mM CB (MUL Data): 60%
[1]; [3]
  IC50: 1050 µM
[2]
  SA (μmol 4 MU/min/mg) (MUL Data): 0.51 μmol 4 MU/min/mg

B18: 268Cys (protein, UniProt P62694 18-513, looked up, variant R268C)
Exoglucanase 1: B1 Exoglucanase 1 with R251C, Y394R
[1]; [7]
  IC50: 380 µM
[2]
  268— Measured Specific Activity (SA): 1.81 μmol 4 MU/min/mg CBH I
  268— Δ SA* (change in specific activity; ratio of variant: WT): 2.4

B19: 268Glu (protein, UniProt P62694 18-513, looked up, variant R268E)
Exoglucanase 1: B1 Exoglucanase 1 with R251E, Y394R
[1]; [7]
  IC50: 630 µM
[2]
  268— Measured Specific Activity (SA): 1.84 μmol 4 MU/min/mg CBH I
  268— Δ SA* (change in specific activity; ratio of variant: WT): 2.4

B20: 411Arg (protein, UniProt P62694 18-513, looked up)
Exoglucanase 1: B1 Exoglucanase 1 with Y394R
[1]; [4]
  IC50: 50 µM
[2]
  411— Measured Specific Activity (SA): 0.83 μmol 4 MU/min/mg CBH I
  411— Δ SA* (change in specific activity; ratio of variant: WT): 1.1

B21: 411Ser (protein, UniProt P62694 18-513, looked up, variant R411S)
Exoglucanase 1: B1 Exoglucanase 1 with Y394S
[1]; [4]
  IC50: 870 µM
[2]
  411— Measured Specific Activity (SA): 0.60 μmol 4 MU/min/mg CBH I
  411— Δ SA* (change in specific activity; ratio of variant: WT): 0.8

B22: 268— Ala (protein, UniProt P62694 18-513, looked up, variant R268A)
Exoglucanase 1: B1 Exoglucanase 1 with R251A, Y394R
[1]; primary screening, n=1
  Tolerance at 1 mM CB (MUL Data): 48%
[1]; [3]
  IC50: 870 µM
[2]
  SA (μmol 4 MU/min/mg) (MUL Data): 1.42 μmol 4 MU/min/mg
